From publication PMC8543371 (Nature microbiology, 2021) come the findings set out here.

B1: AZD8895 P99V (heavy chain) (antibody, V domains shown)
VH: QMQLVQSGPEVKKPGTSVKVSCKASGFTFMSSAVQWVRQARGQRLEWIGWIVIGSGNTNYAQKFQERVTITRDMSTSTAYMELSSLRSEDTAVYYCAAVYCSSISCNDGFDIWGQGTMVTVSS
VL: not shown
B2: AZD8895 D108E (heavy chain) (antibody, V domains shown)
VH: QMQLVQSGPEVKKPGTSVKVSCKASGFTFMSSAVQWVRQARGQRLEWIGWIVIGSGNTNYAQKFQERVTITRDMSTSTAYMELSSLRSEDTAVYYCAAPYCSSISCNEGFDIWGQGTMVTVSS
VL: not shown
B3: AZD8895 P99N (heavy chain) (antibody, V domains shown)
VH: QMQLVQSGPEVKKPGTSVKVSCKASGFTFMSSAVQWVRQARGQRLEWIGWIVIGSGNTNYAQKFQERVTITRDMSTSTAYMELSSLRSEDTAVYYCAANYCSSISCNDGFDIWGQGTMVTVSS
VL: not shown
B4: AZD8895 D108A (heavy chain) (antibody, V domains shown)
VH: QMQLVQSGPEVKKPGTSVKVSCKASGFTFMSSAVQWVRQARGQRLEWIGWIVIGSGNTNYAQKFQERVTITRDMSTSTAYMELSSLRSEDTAVYYCAAPYCSSISCNAGFDIWGQGTMVTVSS
VL: not shown
B5: AZD8895 D108N (heavy chain) (antibody, V domains shown)
VH: QMQLVQSGPEVKKPGTSVKVSCKASGFTFMSSAVQWVRQARGQRLEWIGWIVIGSGNTNYAQKFQERVTITRDMSTSTAYMELSSLRSEDTAVYYCAAPYCSSISCNNGFDIWGQGTMVTVSS
VL: not shown

This experiment concerns the target recombinant SARS-CoV-2 S 6P protein (SARS-CoV-2, Wuhan-Hu-1 reference …, UniProt P0DTC2, stabilised). The experiment is described as follows: ELISA. For orientation: In an ELISA, binding on a coated surface is turned into a signal by an enzyme label.
As for B1, the binding result is reported as “binds”.

With B2, the binding result is “binds”.

For the molecule B3, the binding result is given as “binds”.

In the case of B4, the binding result is reported as “binds”.

For the molecule B5, the binding result is reported as “binds”.
